Data on two substances can be found in PMC6716341 (ACS Central Science, 2019).

Data set [1] can be described thus: In vitro aging: isomerization of Asp1 and Asp7. It counts as physicochemical. The conditions noted are these: from the rates in Figure 4.
The test system of another data set is SH-SY5Y. The conditions noted are these: incubated with SH-SY5Y cells; cited from earlier work.
A further data set deals with SK-N-SH. The following applies: incubated with SK-N-SH cells; cited from earlier work.
The next data set has as its system NSC-hTERT. The conditions noted are these: incubated with NSC-hTERT cells; cited from earlier work.

Regarding “Aβ: amyloid beta in general; isomerization estimated from the measured rates”, in data set [1], the “degree of isomerization within a 30 h time frame” value is given as about 0.2%.
As to “isomerized Aβ1–42: isomerized Aβ1–42 studied by Makarov and co-workers”, the “toxicity relative to canonical form” value with SH-SY5Y, in the data set with SK-N-SH and in the data set on NSC-hTERT was “more toxic than the canonical form” each time.
